According to patent US20040082509:

Key:
[1] = biological target: T1, D-TAT-JNKI1 (i.e., D-TAT-JBD20)
T1 chain: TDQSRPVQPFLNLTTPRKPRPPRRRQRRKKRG

[2] = biological target: T2, L-TAT-JNKI1 (i.e., L-TAT-JBD20)
T2 chain: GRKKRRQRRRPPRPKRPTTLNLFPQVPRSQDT

L-TAT-IB1 peptide = biological target: T3, L-TAT-IB1 peptide
T3 chain: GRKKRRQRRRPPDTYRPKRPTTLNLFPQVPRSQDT

L-TAT-IB2 peptide = biological target: T4, L-TAT-IB2 peptide
T4 chain: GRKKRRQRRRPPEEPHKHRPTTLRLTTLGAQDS

D-TAT-IB1 peptide = biological target: T5, D-TAT-IB1 peptide
T5 chain: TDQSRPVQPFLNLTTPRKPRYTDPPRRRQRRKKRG

B1: recombinant JNK1α1 (protein)
chain: MSRSKRDNNFYSVEIGDSTFTVLKRYQNLKPIGSGAQGIVCAAYDAILERNVAIKKLSRPFQNQTHAKRAYRELVLMKCVNHKNIIGLLNVFTPQKSLEEFQDVYIVMELMDANLCQVIQMELDHERMSYLLYQMLCGIKHLHSAGIIHRDLKPSNIVVKSDCTLKILDFGLARTAGTSFMMTPYVVTRYYRAPEVILGMGYKENVDLWSVGCIMGEMVCHKILFPGRDYIDQWNKVIEQLGTPCPEFMKKLQPTVRTYVENRPKYAGYSFEKLFPDVLFPADSEHNKLKASQARDLLSKMLVIDASKRISVDEALQHPYINVWYDPSEAEAPPPKIPDKQLDEREHTIEEWKELIYKEVMDLEERTKNGVIRGQPSPLAQVQQ
In the case of B1, the “in vitro phosphorylation of GST-Jun and GST-Elk1 by JNK1α1, kinase assay” value [1] is reported as “their ability to prevent the phosphorylation in vitro of known JNK targets c-Jun and Elk1 using JNK1α1” and the “in vitro phosphorylation of GST-Jun and GST-Elk1 by JNK1α1, kinase assay” value [2] is reported as “their ability to prevent the phosphorylation in vitro of known JNK targets c-Jun and Elk1 using JNK1α1”.

B2: MKK4 kinase (protein)
chain: MAAPSPSGGGGSGGGSGSGTPGPVGSPAPGHPAVSSMQGKRKALKLNFANPPFKSTARFTLNPNPTGVQNPHIERLRTHSIESSGKLKISPEQHWDFTAEDLKDLGEIGRGAYGSVNKMVHKPSGQIMAVKRIRSTVDEKEQKQLLMDLDVVMRSSDCPYIVQFYGALFREGDCWICMELMSTSFDKFYKYVYSVLDDVIPEEILGKITLATVKALNHLKENLKIIHRDIKPSNILLDRSGNIKLCDFGISGQLVDSIAKTRDAGCRPYMAPERIDPSASRQGYDVRSDVWSLGITLYELATGRFPYPKWNSVFDQLTQVVKGDPPQLSNSEEREFSPSFINFVNLCLTKDESKRPKYKELLKHPFILMYEERAVEVACYVCKILDQMPATPSSPMYVD
For B2, the “kinase activity towards its substrate, panel of 40 kinases (10 µM peptides, 10 µM ATP)” value (“kinase activity towards its substrate” below) [1] was “the JNKI peptides had an affect on the JNKs and MKK4 and MKK7 kinases” and the “kinase activity towards its substrate” value [2] was “the JNKI peptides had an affect on the JNKs and MKK4 and MKK7 kinases”.

B3: recombinant nonactivated JNK2 (protein)
chain: MSDSKCDSQFYSVQVADSTFTVLKRYQQLKPIGSGAQGIVCAAFDTVLGINVAVKKLSRPFQNQTHAKRAYRELVLLKCVNHKNIISLLNVFTPQKTLEEFQDVYLVMELMDANLCQVIHMELDHERMSYLLYQMLCGIKHLHSAGIIHRDLKPSNIVVKSDCTLKILDFGLARTACTNFMMTPYVVTRYYRAPEVILGMGYKENVDIWSVGCIMGELVKGCVIFQGTDHIDQWNKVIEQLGTPSAEFMKKLQPTVRNYVENRPKYPGIKFEELFPDWIFPSESERDKIKTSQARDLLSKMLVIDPDKRISVDEALRHPYITVWYDPAEAEAPPPQIYDAQLEEREHAIEEWKELIYKEVMDWEERSKNGVVKDQPSDAAVSSNATPSQSSSINDISSMSTEQTLASDTDSSLDASTGPLEGCR
With B3 the “phosphorylation of c-Jun, ATF2 and Elk1 by recombinant JNK2, solid phase kinase assay (peptide 0-25 µM)” value (L-TAT-IB1 peptide) was “Nearly complete inhibition of c-Jun, ATF2 and Elk1 phosphorylation by JNKs was observed at TAT-IB peptide doses as low as 2.5 µM”, the “phosphorylation of c-Jun, ATF2 and Elk1 by recombinant JNK2, solid phase kinase assay (peptide 0-25 µM)” value (L-TAT-IB2 peptide) was “Nearly complete inhibition of c-Jun, ATF2 and Elk1 phosphorylation by JNKs was observed at TAT-IB peptide doses as low as 2.5 µM” and the “GST-Jun (a.a. 1-73) phosphorylation by recombinant JNK2, fold less efficient than L-TAT-IB1 (0-250 µM dosage study)” value (D-TAT-IB1 peptide) was “approximately 10-20 fold less efficiently than L-TAT-IB1”.

B4: recombinant nonactivated JNK1 (protein)
chain: MSRSKRDNNFYSVEIGDSTFTVLKRYQNLKPIGSGAQGIVCAAYDAILERNVAIKKLSRPFQNQTHAKRAYRELVLMKCVNHKNIIGLLNVFTPQKSLEEFQDVYIVMELMDANLCQVIQMELDHERMSYLLYQMLCGIKHLHSAGIIHRDLKPSNIVVKSDCTLKILDFGLARTAGTSFMMTPYVVTRYYRAPEVILGMGYKENVDLWSVGCIMGEMVCHKILFPGRDYIDQWNKVIEQLGTPCPEFMKKLQPTVRTYVENRPKYAGYSFEKLFPDVLFPADSEHNKLKASQARDLLSKMLVIDASKRISVDEALQHPYINVWYDPSEAEAPPPKIPDKQLDEREHTIEEWKELIYKEVMDLEERTKNGVIRGQPSPLGAAVINGSQHPSSSSSVNDVSSMSTDPTLASDTDSSLEAAAGPLGCCR
B4 was tested, and the “phosphorylation of c-Jun, ATF2 and Elk1 by recombinant JNK1, solid phase kinase assay (peptide 0-25 µM)” value (L-TAT-IB1 peptide) was “Nearly complete inhibition of c-Jun, ATF2 and Elk1 phosphorylation by JNKs was observed at TAT-IB peptide doses as low as 2.5 µM”, the “phosphorylation of c-Jun, ATF2 and Elk1 by recombinant JNK1, solid phase kinase assay (peptide 0-25 µM)” value (L-TAT-IB2 peptide) was “Nearly complete inhibition of c-Jun, ATF2 and Elk1 phosphorylation by JNKs was observed at TAT-IB peptide doses as low as 2.5 µM” and the “GST-Jun (a.a. 1-73) phosphorylation by recombinant JNK1, fold less efficient than L-TAT-IB1 (0-250 µM dosage study)” value (D-TAT-IB1 peptide) was “approximately 10-20 fold less efficiently than L-TAT-IB1”.

B5: MKK7 kinase (protein)
chain: MAASSLEQKLSRLEAKLKQENREARRRIDLNLDISPQRPRPTLQLPLANDGGSRSPSSESSPQHPTPPARPRHMLGLPSTLFTPRSMESIEIDQKLQEIMKQTGYLTIGGQRYQAEINDLENLGEMGSGTCGQVWKMRFRKTGHVIAVKQMRRSGNKEENKRILMDLDVVLKSHDCPYIVQCFGTFITNTDVFIAMELMGTCAEKLKKRMQGPIPERILGKMTVAIVKALYYLKEKHGVIHRDVKPSNILLDERGQIKLCDFGISGRLVDSKAKTRSAGCAAYMAPERIDPPDPTKPDYDIRADVWSLGISLVELATGQFPYKNCKTDFEVLTKVLQEEPPLLPGHMGFSGDFQSFVKDCLTKDHRKRPKYNKLLEHSFIKRYETLEVDVASWFKDVMAKTESPRTSGVLSQPHLPFFR
B5 was tested, and the “kinase activity towards its substrate” value [1] was “the JNKI peptides had an affect on the JNKs and MKK4 and MKK7 kinases” and the “kinase activity towards its substrate” value [2] was “the JNKI peptides had an affect on the JNKs and MKK4 and MKK7 kinases”.

B6: recombinant nonactivated JNK3 (protein)
chain: MSLHFLYYCSEPTLDVKIAFCQGFDKQVDVSYIAKHYNMSKSKVDNQFYSVEVGDSTFTVLKRYQNLKPIGSGAQGIVCAAYDAVLDRNVAIKKLSRPFQNQTHAKRAYRELVLMKCVNHKNIISLLNVFTPQKTLEEFQDVYLVMELMDANLCQVIQMELDHERMSYLLYQMLCGIKHLHSAGIIHRDLKPSNIVVKSDCTLKILDFGLARTAGTSFMMTPYVVTRYYRAPEVILGMGYKENVDIWSVGCIMGEMVRHKILFPGRDYIDQWNKVIEQLGTPCPEFMKKLQPTVRNYVENRPKYAGLTFPKLFPDSLFPADSEHNKLKASQARDLLSKMLVIDPAKRISVDDALQHPYINVWYDPAEVEAPPPQIYDKQLDEREHTIEEWKELIYKEVMNSEEKTKNGVVKGQPSPSGAAVNSSESLPPSSSVNDISSMSTDQTLASDTDSSLEASAGPLGCCR
B6 was tested, and the “phosphorylation of Elk1 by recombinant JNK3, solid phase kinase assay” value (L-TAT-IB1 peptide) was “a marked exception was the absence of TAT-IB inhibition of JNK3 phosphorylation of Elk1”, the “phosphorylation of c-Jun and ATF2 by recombinant JNK3, solid phase kinase assay (peptide 0-25 µM)” value (L-TAT-IB1 peptide) was “Nearly complete inhibition of c-Jun, ATF2 and Elk1 phosphorylation by JNKs was observed at TAT-IB peptide doses as low as 2.5 µM” and the “phosphorylation of Elk1 by recombinant JNK3, solid phase kinase assay” value (L-TAT-IB2 peptide) was “a marked exception was the absence of TAT-IB inhibition of JNK3 phosphorylation of Elk1”. The “phosphorylation of c-Jun and ATF2 by recombinant JNK3, solid phase kinase assay (peptide 0-25 µM)” value (L-TAT-IB2 peptide) was “Nearly complete inhibition of c-Jun, ATF2 and Elk1 phosphorylation by JNKs was observed at TAT-IB peptide doses as low as 2.5 µM” and the “GST-Jun (a.a. 1-73) phosphorylation by recombinant JNK3, fold less efficient than L-TAT-IB1 (0-250 µM dosage study)” value (D-TAT-IB1 peptide) was “approximately 10-20 fold less efficiently than L-TAT-IB1”.
